Legend:
Bee Hyaluronidase [1] = target: T1, Bee Hyaluronidase (Apis mellifera (honeybee)); assay: SPR; ProteOn XPR36 (Bio-Rad), GLC chip; IgG captured on amine-coupled anti-human capture antibody (Human Antibody Capture Kit), antigen as analyte; 1x HBS-EP+ pH 7.4 with BSA 1 mg/ml; equilibrium or kinetic Langmuir model; details: both partners purified
T1 construct: also called the main allergen in bee venom

Bee Hyaluronidase [2] = target: T1, Bee Hyaluronidase; assay: SPR; Biacore 4000, CM5 chip; IgG captured on amine-coupled anti-human capture antibody (Human Antibody Capture Kit), antigen as analyte; 1x HBS-EP+ pH 7.4 with BSA 1 mg/ml; equilibrium or kinetic Langmuir model; apparent KD; details: both partners purified

T1 sequence (heavy, as listed by the source): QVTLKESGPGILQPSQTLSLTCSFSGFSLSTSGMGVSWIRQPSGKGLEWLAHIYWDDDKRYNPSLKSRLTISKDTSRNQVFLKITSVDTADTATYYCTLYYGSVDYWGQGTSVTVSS

Row | Binder | Kd (Bee Hyaluronidase [1]) [nM] | Kd (Bee Hyaluronidase [2]) [nM]
1 | WT 2J88 antibody (antibody, V domains shown, heavy-chain variable domain of the antibody in PDB 2J88; human IgG1 heavy constant region, from the vector pFUSEss-CHIg-hG1; light-chain variable domain of the antibody in PDB 2J88; human kappa constant region, from the vector pFUSEss-CLIg-hk; the abstract says one lambda and one kappa antibody were tested; Expressed as IgG (human IgG1 constant regions from pFUSE vectors) with the variable …) VH: not shown VL: DIQMTQSPASLSASVGETVTITCRASENIYSYLTWYQQKQGKSPQLLVYNAKTLAEGVPSRFSGSGSGTQFSLKISSLQPEDFGNYYCQHHYGTRTFGGGTRLEIK | 9.2 | –
2 | WT 2J88 antibody Y38K (antibody, V domains shown, as the heavy-chain variable domain of m1 (PDB 2J88); human IgG1 heavy constant region, from the vector pFUSEss-CHIg-hG1; as the light-chain variable domain of m1 (PDB 2J88) with Y38K in L1; human kappa constant region, from the vector pFUSEss-CLIg-hk; kappa inferred as for m1; IgG; Position 38 is most likely AHo numbering; source: 293F cells, transfected (pFUSE vectors), purified (rProtein A …)) VH: not shown VL: DIQMTQSPASLSASVGETVTITCRASENIKSYLTWYQQKQGKSPQLLVYNAKTLAEGVPSRFSGSGSGTQFSLKISSLQPEDFGNYYCQHHYGTRTFGGGTRLEIK | – | 4.3
3 | L14_7 (antibody, V domains shown, as the heavy-chain variable domain of m1 (PDB 2J88); human IgG1 heavy constant region, from the vector pFUSEss-CHIg-hG1; as the light-chain variable domain of m1 (PDB 2J88) with a designed L1 (cluster L1-11-2, six amino acid differences) and one difference in the L4 (DE) loop; human kappa constant region, from the vector pFUSEss-CLIg-hk; kappa inferred as for m1; IgG; Computational design (RAbD) …) VH: not shown VL: DIQMTQSPASLSASVGETVTITCRSSRDIKDYITWYQQKQGKSPQLLVYNAKTLAEGVPSRFSGSGSGTEFSLKISSLQPEDFGNYYCQHHYGTRTFGGGTRLEIK | 0.77 | –

Reference: article PMC5942852 (PLoS Computational Biology, 2018)
